Read-outs that look alike come from different tables or passages of the source.
T1: TGFβ3 (R&D Systems) (Homo sapiens (Human), UniProt P10600 301-412, Active TGFβ3 is a disulfide-linked homodimer of this chain; one copy is given.)
T1 construct: also called TGFB3
T1 sequence: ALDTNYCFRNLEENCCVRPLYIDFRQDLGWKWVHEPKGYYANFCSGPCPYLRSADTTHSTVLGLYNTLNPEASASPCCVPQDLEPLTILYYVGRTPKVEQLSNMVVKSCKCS

T2: TGFβ2 (R&D Systems)
T2 construct: also called TGFB2
T2 sequence (P61812 303-414, species assumed, looked up): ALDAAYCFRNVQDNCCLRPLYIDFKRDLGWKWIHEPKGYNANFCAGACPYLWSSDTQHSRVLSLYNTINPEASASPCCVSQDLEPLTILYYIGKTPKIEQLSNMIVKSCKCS


Experiments:
TGFβ3 (R&D Systems) [1] = biological target: T1, TGFβ3 (R&D Systems); experiment: SPR, TGFβ on chip
Description: (§1) To avoid affinity differences associated with differential surface preparation that can occur when immobilizing antibodies to surfaces, TGFβ1, TGFβ2, and TGFβ3 (R&D Systems) were directly conjugated to the individual surface. Immobilization was obtained by amine coupling […] using N-hydroxysuccinimide (NHS)/1-Ethyl-3-(3-dimethylaminopropyl) carbodiimide (EDC) chemistry. Chips were quenched with ethanolamine and the affinity with which all candidate mAbs bound to the immobilized TGFβ was evaluated. All curves were fit to a 1:1 model. Affinities <10⁻¹¹ are below the lower limit of quantitation of detection for the instrument.

TGFβ2 (R&D Systems) [2] = biological target: T2, TGFβ2 (R&D Systems); experiment: SPR, TGFβ on chip
Description: as §1

TGFβ1 (R&D Systems) [3] = biological target: T3, TGFβ1 (R&D Systems); experiment: SPR, TGFβ on chip
T3 construct: also called TGFB1
Description: as §1

TGFβ3 (R&D Systems) [4] = biological target: T1, TGFβ3 (R&D Systems); experiment: cell-based or functional assay
TGFβ1 (R&D Systems) [5] = biological target: T3, TGFβ1 (R&D Systems); experiment: cell-based or functional assay
TGFβ3 (R&D Systems) [6] = biological target: T1, TGFβ3 (R&D Systems); experiment: SPR full titration
TGFβ1 (R&D Systems) [7] = biological target: T3, TGFβ1 (R&D Systems); experiment: SPR full titration
TGFβ3 (R&D Systems) [8] = biological target: T1, TGFβ3 (R&D Systems); experiment: cell-based or functional assay; remark: listed apart in the source
TGFβ2 (R&D Systems) [9] = biological target: T2, TGFβ2 (R&D Systems); experiment: cell-based or functional assay
TGFβ1 (R&D Systems) [10] = biological target: T3, TGFβ1 (R&D Systems); experiment: cell-based or functional assay; remark: listed apart in the source
TGFβ1 (R&D Systems) [11] = biological target: T3, TGFβ1 (R&D Systems); experiment: cell-based or functional assay; remark: listed apart in the source

T3 sequence (P01137 279-390): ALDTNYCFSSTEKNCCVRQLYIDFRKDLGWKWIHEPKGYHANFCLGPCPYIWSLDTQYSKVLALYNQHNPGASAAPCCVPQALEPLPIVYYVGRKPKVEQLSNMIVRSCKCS

Row | binding result (TGFβ3 (R&D Systems) [6]) | Kd (TGFβ1 (R&D Systems) [7]) | CMVIC pSmad-3, IC50 (TGFβ3 (R&D Systems) [8]) | CMVIC pSmad-3, IC50 (TGFβ2 (R&D Systems) [9]) | CMVIC pSmad-3, IC50 (TGFβ1 (R&D Systems) [10]) | Binder | further results
1 | no binding | 0.472 nM |  |  |  | chi SL501 (antibody, also called Chimera-SL501-VH/Chimera-SL501-VL) heavy: EVQLVESGGGVVQPGRSLRLSCAASGFTFSSYGMHWVRQAPGKELEWVAVISYDGSIKYYADSVKGRFTISRDNSKNTLYLQMNSLRAEDTAVYYCARTGEYSGYDTDPQYSWGQGTTVTVSSASTTAPSVFPLAPSCGSTSGSTVALACLVSGYFPEPVTVSWNSGSLTSGVHTFPSVLQSSGLYSLSSMVTVPSSRWPSETFTCNVAHPASKTKVDKPVPKRENGRVPRPPDCPKCPAPEAAGAPSVFIFPPKPKDTLLIARTPEVTCVVVDLDPEDPEVQISWFVDGKQMQTAKTQPREEQFNGTYRVVSVLPIGHQDWLKGKQFTCKVNNKALPSPIERTISKARGQAHQPSVYVLPPSREELSKNTVSLTCLIKDFFPPDIDVEWQSNGQQEPESKYRTTPPQLDEDGSYFLYSKLSVDKSRWQRGDTFICAVMHEALHNHYTQESLSHSPGK light: EIVLTQSPSSLSASVGDRVTITCRASQGIGDDLGWYQQKPGKAPILLIYGTSTLQSGVPSRFSGSGSGTDFTLTINSLQPEDFATYYCLQDSNYPLTFGGGTKRNDAQPAVYLFQPSPDQLHTGSASVVCLLNSFYPKDINVKWKVDGVIQDTGIQESVTEQDKDSTYSLSSTLTMSSTEYLSHELYSCEITHKSLPSTLIKSFQRSEC | 
2 |  |  | 10.1 nM | 121 nM | 69.7 nM | felHclb 1-1WMN (antibody, V domains shown) VH: QVLLVQSGAEVRTPGASVKIFCKASGYIFITYWMNWVRQSPAQGLEWMGSIFPASGSTSYAQKFQGRLTLTADTSTNTAYMELSSLRSADTAMYYCARGDGNYALDAMDYWGQGTSVTVSS VL: EIQMTQSPSSLSASPGDRVTITCRASESVDSYGNSFMHWYQQKPGKVPKLLIYLASNLESGVPSRFSGSGSGTDFTLTISSLEPEDAATYYCQQNNEDPLTFGAGT | 
3 |  |  | 0.53 nM | 1.99 nM | 0.35 nM | felHclb 1-1xWMN (antibody, V domains shown) VH: QVLLVQSGAEVRTPGASVKIFCKASGYIFITYWMNWVRQSPAQGLEWMGQIFPASGSTNYNEMFEGRLTLTADTSTNTAYMELSSLRSADTAMYYCARGDGNYALDAMDYWGQGTSVTVSS VL: EIQMTQSPSSLSASPGDRVTITCRASESVDSYGNSFMHWYQQKPGKVPKLLIYLASNLESGVPSRFSGSGSGTDFTLTISSLEPEDAATYYCQQNNEDPLTFGAGT | 

The next lines start with the binder.

Row | Binder | binding result (TGFβ3 (R&D Systems) [6]) | Kd (TGFβ1 (R&D Systems) [7]) | CMVIC pSmad-3, IC50 (TGFβ3 (R&D Systems) [8]) | CMVIC pSmad-3, IC50 (TGFβ2 (R&D Systems) [9]) | CMVIC pSmad-3, IC50 (TGFβ1 (R&D Systems) [10]) | further results
4 | chi04H09 (mouse-dog) (antibody, V domains shown, also called mouse:canine 04H09 chimera) VH: QVQLQQSGAELVKPGASVKISCKASGYAFSSSWMNWVKQRPGKGLEWIGQIYPGDGDTNYNGKFKGKATLTADKSSSTAYMQLSSLTSEDSAVYFCARHYDGSTDYWGQGTTLTVSS VL: DIQMTQSPASLSVSVGETVTITCRASENIYSNLAWYQQKQGKSPQLLVYAATNLADGVPSRFSGSGSGTQYSLKINSLQSEDFGSYYCQHFWGTPYTFGGGTKLEIKR |  |  |  |  |  | Kd (TGFβ3 (R&D Systems) [1]): 4.64 nM; Kd (TGFβ2 (R&D Systems) [2]): 27.7 nM; Kd (TGFβ1 (R&D Systems) [3]): 4.01 nM; CMVIC pSmad-3, IC50 (TGFβ3 (R&D Systems) [4]): 66.5 nM; CMVIC pSmad-3, IC50 (TGFβ1 (R&D Systems) [5]): 3.5 nM
5 | Can-SL501_VH3/Can-SL501-VL1 (antibody, V domains shown, caninized IgG; constant regions not restated; also called ZTS-501) VH: EVQLVESGGDLVKPGGSLRLSCVASGFTFSSYGMHWVRQAPGKGLQWVAVISYDGSIKYYADAVKGRFTISRDNAKNTLYLQMNSLRAEDTAVYYCARTGEYSGYDTDPQYSWGQGTTVTVSS VL: EIVMTQSPASLSLSQEEKVTITCRASQGIGDDLGWYQQKPGQAPKLLIYGTSTLQSGVPSRFSGSGSGTDFSFTISSLEPEDVAVYYCLQDSNYPLTFGAGTK | no binding | 0.0218 nM |  |  |  | CMVIC pSmad-3, IC50 (TGFβ1 (R&D Systems) [11]): 4.91 nM
